Laboratory results taken from patent US20210309722A1 (DUKE UNIVERSITY, published 2021).

B1: ELP20%Ala,120-FGF21 (other)
chain: GVGVPGVGVPGAGVPGVGVPGVGVPGVGVPGVGVPGAGVPGVGVPGVGVPGVGVPGVGVPGAGVPGVGVPGVGVPGVGVPGVGVPGAGVPGVGVPGVGVPGVGVPGVGVPGAGVPGVGVPGVGVPGVGVPGVGVPGAGVPGVGVPGVGVPGVGVPGVGVPGAGVPGVGVPGVGVPGVGVPGVGVPGAGVPGVGVPGVGVPGVGVPGVGVPGAGVPGVGVPGVGVPGVGVPGVGVPGAGVPGVGVPGVGVPGVGVPGVGVPGAGVPGVGVPGVGVPGVGVPGVGVPGAGVPGVGVPGVGVPGVGVPGVGVPGAGVPGVGVPGVGVPGVGVPGVGVPGAGVPGVGVPGVGVPGVGVPGVGVPGAGVPGVGVPGVGVPGVGVPGVGVPGAGVPGVGVPGVGVPGVGVPGVGVPGAGVPGVGVPGVGVPGVGVPGVGVPGAGVPGVGVPGVGVPGVGVPGVGVPGAGVPGVGVPGVGVPGVGVPGVGVPGAGVPGVGVPGVGVPGVGVPGVGVPGAGVPGVGVPGVGVPGVGVPGVGVPGAGVPGVGVPGVGVPGVGVPGVGVPGAGVPGVGVPGVGVPGVGVPGVGVPGAGVPGVGVPGVGVPGAYPIPDSSPLLQFGGQVRQRYLYTDDDQDTEAHLEIREDGTVVGAAHRSPESLLELKALKPGVIQILGVKASRFLCQQPDGALYGSPHFDPEACSFRERLLEDGYNVYQSEAHGLPLRLPQKDSPNQDATSWGPVRFLPMPGLLHEPQDQAGFLPPEPPDVGSSDPLSMVEGSQGRSPSYASG
B2: GLP1-ELP20%Ala,120-FGF21 (no AA leader) (other)
chain: HGEGTFTSDVSSYLEEQAAKEFIAWLVKGAGVGVPGVGVPGAGVPGVGVPGVGVPGVGVPGVGVPGAGVPGVGVPGVGVPGVGVPGVGVPGAGVPGVGVPGVGVPGVGVPGVGVPGAGVPGVGVPGVGVPGVGVPGVGVPGAGVPGVGVPGVGVPGVGVPGVGVPGAGVPGVGVPGVGVPGVGVPGVGVPGAGVPGVGVPGVGVPGVGVPGVGVPGAGVPGVGVPGVGVPGVGVPGVGVPGAGVPGVGVPGVGVPGVGVPGVGVPGAGVPGVGVPGVGVPGVGVPGVGVPGAGVPGVGVPGVGVPGVGVPGVGVPGAGVPGVGVPGVGVPGVGVPGVGVPGAGVPGVGVPGVGVPGVGVPGVGVPGAGVPGVGVPGVGVPGVGVPGVGVPGAGVPGVGVPGVGVPGVGVPGVGVPGAGVPGVGVPGVGVPGVGVPGVGVPGAGVPGVGVPGVGVPGVGVPGVGVPGAGVPGVGVPGVGVPGVGVPGVGVPGAGVPGVGVPGVGVPGVGVPGVGVPGAGVPGVGVPGVGVPGVGVPGVGVPGAGVPGVGVPGVGVPGVGVPGVGVPGAGVPGVGVPGVGVPGVGVPGVGVPGAGVPGVGVPGVGVPGVGVPGVGVPGAGVPGVGVPGVGVPGAYPIPDSSPLLQFGGQVRQRYLYTDDDQDTEAHLEIREDGTVVGAAHRSPESLLELKALKPGVIQILGVKASRFLCQQPDGALYGSPHFDPEACSFRERLLEDGYNVYQSEAHGLPLRLPQKDSPNQDATSWGPVRFLPMPGLLHEPQDQAGFLPPEPPDVGSSDPLSMVEGSQGRSPSYASG
B3: GLP1-ELP20%Ala,120-FGF21 (other)
chain: AAHGEGTFTSDVSSYLEEQAAKEFIAWLVKGAGVGVPGVGVPGAGVPGVGVPGVGVPGVGVPGVGVPGAGVPGVGVPGVGVPGVGVPGVGVPGAGVPGVGVPGVGVPGVGVPGVGVPGAGVPGVGVPGVGVPGVGVPGVGVPGAGVPGVGVPGVGVPGVGVPGVGVPGAGVPGVGVPGVGVPGVGVPGVGVPGAGVPGVGVPGVGVPGVGVPGVGVPGAGVPGVGVPGVGVPGVGVPGVGVPGAGVPGVGVPGVGVPGVGVPGVGVPGAGVPGVGVPGVGVPGVGVPGVGVPGAGVPGVGVPGVGVPGVGVPGVGVPGAGVPGVGVPGVGVPGVGVPGVGVPGAGVPGVGVPGVGVPGVGVPGVGVPGAGVPGVGVPGVGVPGVGVPGVGVPGAGVPGVGVPGVGVPGVGVPGVGVPGAGVPGVGVPGVGVPGVGVPGVGVPGAGVPGVGVPGVGVPGVGVPGVGVPGAGVPGVGVPGVGVPGVGVPGVGVPGAGVPGVGVPGVGVPGVGVPGVGVPGAGVPGVGVPGVGVPGVGVPGVGVPGAGVPGVGVPGVGVPGVGVPGVGVPGAGVPGVGVPGVGVPGVGVPGVGVPGAGVPGVGVPGVGVPGVGVPGVGVPGAGVPGVGVPGVGVPGAYPIPDSSPLLQFGGQVRQRYLYTDDDQDTEAHLEIREDGTVVGAAHRSPESLLELKALKPGVIQILGVKASRFLCQQPDGALYGSPHFDPEACSFRERLLEDGYNVYQSEAHGLPLRLPQKDSPNQDATSWGPVRFLPMPGLLHEPQDQAGFLPPEPPDVGSSDPLSMVEGSQGRSPSYASG
B4: GLP1-ELP20%Ala,120 (other)
chain: HGEGTFTSDVSSYLEEQAAKEFIAWLVKGAGVGVPGVGVPGAGVPGVGVPGVGVPGVGVPGVGVPGAGVPGVGVPGVGVPGVGVPGVGVPGAGVPGVGVPGVGVPGVGVPGVGVPGAGVPGVGVPGVGVPGVGVPGVGVPGAGVPGVGVPGVGVPGVGVPGVGVPGAGVPGVGVPGVGVPGVGVPGVGVPGAGVPGVGVPGVGVPGVGVPGVGVPGAGVPGVGVPGVGVPGVGVPGVGVPGAGVPGVGVPGVGVPGVGVPGVGVPGAGVPGVGVPGVGVPGVGVPGVGVPGAGVPGVGVPGVGVPGVGVPGVGVPGAGVPGVGVPGVGVPGVGVPGVGVPGAGVPGVGVPGVGVPGVGVPGVGVPGAGVPGVGVPGVGVPGVGVPGVGVPGAGVPGVGVPGVGVPGVGVPGVGVPGAGVPGVGVPGVGVPGVGVPGVGVPGAGVPGVGVPGVGVPGVGVPGVGVPGAGVPGVGVPGVGVPGVGVPGVGVPGAGVPGVGVPGVGVPGVGVPGVGVPGAGVPGVGVPGVGVPGVGVPGVGVPGAGVPGVGVPGVGVPGVGVPGVGVPGAGVPGVGVPGVGVPGVGVPGVGVPGAGVPGVGVPGVGVPGVGVPGVGVPGAGVPGVGVPGVGVPG
B5: GLP1-ELP-FGF21 (after removal of the expression-enhancing sequence) (other)
chain: MSKGPGENLYFQGAHGEGTFTSDVSSYLEEQAAKEFIAWLVKGAGVGVPGVGVPGAGVPGVGVPGVGVPGVGVPGVGVPGAGVPGVGVPGVGVPGVGVPGVGVPGAGVPGVGVPGVGVPGVGVPGVGVPGAGVPGVGVPGVGVPGVGVPGVGVPGAGVPGVGVPGVGVPGVGVPGVGVPGAGVPGVGVPGVGVPGVGVPGVGVPGAGVPGVGVPGVGVPGVGVPGVGVPGAGVPGVGVPGVGVPGVGVPGVGVPGAGVPGVGVPGVGVPGVGVPGVGVPGAGVPGVGVPGVGVPGVGVPGVGVPGAGVPGVGVPGVGVPGVGVPGVGVPGAGVPGVGVPGVGVPGVGVPGVGVPGAGVPGVGVPGVGVPGVGVPGVGVPGAGVPGVGVPGVGVPGVGVPGVGVPGAGVPGVGVPGVGVPGVGVPGVGVPGAGVPGVGVPGVGVPGVGVPGVGVPGAGVPGVGVPGVGVPGVGVPGVGVPGAGVPGVGVPGVGVPGVGVPGVGVPGAGVPGVGVPGVGVPGVGVPGVGVPGAGVPGVGVPGVGVPGVGVPGVGVPGAGVPGVGVPGVGVPGVGVPGVGVPGAGVPGVGVPGVGVPGVGVPGVGVPGAGVPGVGVPGVGVPGVGVPGVGVPGAGVPGVGVPGVGVPGAYPIPDSSPLLQFGGQVRQRYLYTDDDQDTEAHLEIREDGTVVGAAHRSPESLLELKALKPGVIQILGVKASRFLCQQPDGALYGSPHFDPEACSFRERLLEDGYNVYQSEAHGLPLRLPQKDSPNQDATSWGPVRFLPMPGLLHEPQDQAGFLPPEPPDVGSSDPLSMVEGSQGRSPSYASG

Tests used:
[1] = target: FGF21 receptor complex (murine β-Klotho and FGF receptor 1) (murine, UniProt Q99N32 1-1043; P16092 22-822); experiment: cell-based or functional assay
FGF21 receptor complex (murine β-Klotho and FGF receptor 1), sequence (Q99N32 whole entry, chain 1 of 2): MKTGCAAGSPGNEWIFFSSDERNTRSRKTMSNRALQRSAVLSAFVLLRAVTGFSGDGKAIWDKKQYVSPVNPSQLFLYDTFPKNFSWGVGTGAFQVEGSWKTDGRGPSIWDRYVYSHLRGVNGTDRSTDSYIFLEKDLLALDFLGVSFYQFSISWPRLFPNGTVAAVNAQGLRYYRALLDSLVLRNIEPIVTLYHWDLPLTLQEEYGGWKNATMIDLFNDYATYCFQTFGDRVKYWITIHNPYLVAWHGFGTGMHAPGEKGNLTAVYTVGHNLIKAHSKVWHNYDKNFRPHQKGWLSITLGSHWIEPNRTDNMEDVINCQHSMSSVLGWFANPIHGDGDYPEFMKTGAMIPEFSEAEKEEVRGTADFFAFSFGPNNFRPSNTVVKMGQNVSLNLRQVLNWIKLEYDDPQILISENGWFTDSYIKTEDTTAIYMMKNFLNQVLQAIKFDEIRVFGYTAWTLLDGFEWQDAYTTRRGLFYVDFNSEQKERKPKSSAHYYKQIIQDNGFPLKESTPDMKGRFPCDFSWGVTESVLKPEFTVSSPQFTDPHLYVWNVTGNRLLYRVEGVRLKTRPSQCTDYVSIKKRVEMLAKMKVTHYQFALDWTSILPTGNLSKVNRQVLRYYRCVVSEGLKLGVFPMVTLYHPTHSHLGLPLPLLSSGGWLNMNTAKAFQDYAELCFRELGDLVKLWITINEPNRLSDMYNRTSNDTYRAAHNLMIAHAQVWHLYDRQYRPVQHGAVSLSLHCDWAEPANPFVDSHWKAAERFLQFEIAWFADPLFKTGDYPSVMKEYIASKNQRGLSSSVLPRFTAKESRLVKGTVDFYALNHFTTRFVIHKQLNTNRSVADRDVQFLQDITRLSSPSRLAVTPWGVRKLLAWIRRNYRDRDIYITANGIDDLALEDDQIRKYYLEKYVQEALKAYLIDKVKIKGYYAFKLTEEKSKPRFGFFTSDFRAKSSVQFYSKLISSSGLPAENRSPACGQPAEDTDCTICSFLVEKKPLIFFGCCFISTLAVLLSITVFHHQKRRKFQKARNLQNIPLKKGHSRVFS
FGF21 receptor complex (murine β-Klotho and FGF receptor 1), sequence (P16092 22-822, chain 2 of 2): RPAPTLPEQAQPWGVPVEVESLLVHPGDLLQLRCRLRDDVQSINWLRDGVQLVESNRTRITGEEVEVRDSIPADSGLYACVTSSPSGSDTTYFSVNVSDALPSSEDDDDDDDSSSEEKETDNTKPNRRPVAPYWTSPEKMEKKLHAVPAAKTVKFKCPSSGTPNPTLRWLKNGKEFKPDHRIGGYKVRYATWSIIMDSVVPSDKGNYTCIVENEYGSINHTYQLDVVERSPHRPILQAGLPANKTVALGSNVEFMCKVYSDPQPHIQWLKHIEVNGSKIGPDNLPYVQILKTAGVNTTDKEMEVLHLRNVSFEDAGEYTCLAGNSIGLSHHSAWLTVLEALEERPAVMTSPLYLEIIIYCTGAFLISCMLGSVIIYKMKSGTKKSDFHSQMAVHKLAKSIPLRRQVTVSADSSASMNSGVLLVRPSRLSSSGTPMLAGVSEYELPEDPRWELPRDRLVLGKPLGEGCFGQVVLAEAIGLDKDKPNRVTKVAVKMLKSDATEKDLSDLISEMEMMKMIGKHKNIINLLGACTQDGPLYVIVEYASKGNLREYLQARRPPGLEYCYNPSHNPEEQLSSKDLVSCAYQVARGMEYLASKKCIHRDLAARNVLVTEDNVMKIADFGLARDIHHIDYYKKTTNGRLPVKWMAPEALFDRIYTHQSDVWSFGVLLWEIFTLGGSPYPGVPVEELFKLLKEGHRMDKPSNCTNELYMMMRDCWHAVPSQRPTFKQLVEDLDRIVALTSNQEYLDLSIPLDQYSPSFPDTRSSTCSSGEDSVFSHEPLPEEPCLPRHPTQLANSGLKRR

GLP-1 receptor = experiment: cell-based or functional assay

Binder	FGF21 receptor EC50, ERK1/2 phosphorylation (phospho-ERK1/2 normalized to total ERK1/2) in HEK293 cells expressing FGFR1 and β-Klotho [1]	GLP-1R EC50, cAMP production (cAMP-inducible luciferase reporter) in HEK293 cells expressing GLP-1R (GLP-1 receptor)	fold increase of EC50 against native GLP1, cAMP production assay (GLP-1 receptor)	other results
B1	18.8 nM	–	–	fold increase of FGF21 receptor EC50 against native mouse FGF21, ERK1/2 phosphorylation assay [1]: ~20 fold
B2	–	0.0239 nM	~10 fold	–
B3	43.2 nM	–	–	–
B4	–	0.0295 nM	~10 fold	fold increase of EC50 against native GLP-1, cAMP production assay (GLP-1 receptor): 10 fold; fold increase of GLP-1R EC50 against native GLP-1, cAMP production assay (GLP-1 receptor): ~10 fold
B5	–	–	–	EC50, cAMP production (cAMP-inducible luciferase reporter) in HEK293 cells expressing GLP1R (GLP-1 receptor): 0.212 nM
